Measured values taken from patent CN110655572A.

Tests used:
[1] = target: 马尔堡病毒GP蛋白 (马尔堡病毒 (MARV)); assay: ELISA, GP protein coated on plate, goat anti-human IgG-HRP detection
[2] = target: 苏丹型GP蛋白 (苏丹型埃博拉病毒 (SUDV)); assay: as above
[3] = target: 扎依尔型GP蛋白 (扎依尔型埃博拉病毒 (ZEBOV)); assay: as above
[4] = target: 马尔堡病毒GP蛋白 (马尔堡病毒 (MARV)); assay: cell-based or functional assay
[5] = target: 苏丹型GP蛋白 (苏丹型埃博拉病毒 (SUDV)); assay: cell-based or functional assay
[6] = target: 扎依尔型GP蛋白 (扎依尔型埃博拉病毒 (ZEBOV)); assay: cell-based or functional assay

B1: 单克隆抗体40C1L (antibody, V domains shown)
VH: EVQLVQSGAEVKRPGESLKISCKTSGYSFPTYWITWVRQMPGKGLEWMGTIDLSDSETKYSPSFDGQVTISADKSINTAYLQWSSLKASDSATYYCAMRYSNYRTWFNVWGPGVLVTVSS
VL: SYDLTQPPSVSVSPGQTARITCGGDNIGSEAVHWYQQQPPQAPVLVIYYNRERPSGIPERFSGSKSGNTATLTISGVEAGDEADYYCQLWDSSSDYPLFGGGTRLTVL
**Q.** B1 was tested. Which EC50 [1] did it give?
**A.** 0.342 µg/mL

**Q.** What about the EC50 [2] of the same binder?
**A.** 2.09 µg/mL

**Q.** What about the EC50 [3] of the same binder?
**A.** 0.697 µg/mL

**Q.** And the 假病毒中和 最大半数抑制浓度(IC50) [4]?
**A.** 14.5 µg/mL

**Q.** What about the 假病毒中和 最大半数抑制浓度(IC50) [5] of the same binder?
**A.** 3.12 µg/mL

**Q.** And the 假病毒中和 最大半数抑制浓度(IC50) [6]?
**A.** 25.3 µg/mL
